Molecular target: GST-DNMT1-N (UniProt P26358)
Test: pull-down; GST-tagged proteins on Glutathione Sepharose beads incubated with acid-extracted core histones from HEK293T cells transfected with FLAG-H3 or FLAG-H2B and UHRF1 (S phase); 25 mM Tris-HCl pH 8.0, 150 mM NaCl, 1% NP-40, 2 mM EDTA, 1 mM DTT, 4 °C, 3 h; WB with anti-FLAG

Substance | fold enrichment of the ubiquitinated histone in the pull-down [fold]
ubiquitinated FLAG-H2B (from UniProt P0CG48 1-76) | 4.9
ubiquitinated FLAG-H3 (from UniProt P0CG48 1-76) | 20

From PMC7445300
